Source: patent publication US20250243277A1 (AVACTA LIFE SCIENCES, published 2025)

B1: Clone 234 (designed binder)
chain: MIPGGLSEAKPATPEIQEIVDKVKPQLEEKTGETYGKLEAVQYKTQVVRNSGVWEFEGTNYYIKVRAGDNKYMHLKVFKSLGKYKTNWYFEDLVLTGYQVDKNKDDELTGF
notes: His-tagged
B2: Clone 237 (designed binder)
chain: MIPGGLSEAKPATPEIQEIVDKVKPQLEEKTGETYGKLEAVQYKTQVVVAGLKWHWEGTNYYIKVRAGDNKYMHLKVFKSLIYASQYDYREDLVLTGYQVDKNKDDELTGF
notes: His-tagged
B3: Clone 226 (designed binder)
chain: MIPGGLSEAKPATPEIQEIVDKVKPQLEEKTGETYGKLEAVQYKTQVVYKHDDEYGFGTNYYIKVRAGDNKYMHLKVFKSLKWTNRANKPEDLVLTGYQVDKNKDDELTGF
notes: His-tagged
B4: Clone 235 (designed binder)
chain: MIPGGLSEAKPATPEIQEIVDKVKPQLEEKTGETYGKLEAVQYKTQVVWNPPSLPISGTNYYIKVRAGDNKYMHLKVFKSLAWDNTAKHGEDLVLTGYQVDKNKDDELTGF
notes: His-tagged
B5: Clone 242 (designed binder)
chain: MIPGGLSEAKPATPEIQEIVDKVKPQLEEKTGETYGKLEAVQYKTQVVVEWSESGYDGTNYYIKVRAGDNKYMHLKVFKSLRLKSNVNIAEDLVLTGYQVDKNKDDELTGF
notes: His-tagged
B6: Clone 243 (designed binder)
chain: MIPGGLSEAKPATPEIQEIVDKVKPQLEEKTGETYGKLEAVQYKTQVVWKQITLPVDGTNYYIKVRAGDNKYMHLKVFKSLHWDEYEYDEEDLVLTGYQVDKNKDDELTGF
notes: His-tagged
B7: Clone 221 (designed binder)
chain: MIPGGLSEAKPATPEIQEIVDKVKPQLEEKTGETYGKLEAVQYKTQVVIQDVDWRLWGTNYYIKVRAGDNKYMHLKVFKSLVPSDWSKTIEDLVLTGYQVDKNKDDELTGF
notes: His-tagged
B8: Clone 251 (designed binder)
chain: MIPGGLSEAKPATPEIQEIVDKVKPQLEEKTGETYGKLEAVQYKTQVVATDQDWRKWGTNYYIKVRAGDNKYMHLKVFKSLIPLNWQLQEEDLVLTGYQVDKNKDDELTGF
notes: His-tagged
B9: Clone 25 (designed binder)
chain: MIPGGLSEAKPATPEIQEIVDKVKPQLEEKTGETYGKLEAVQYKTQVVVRHPRWFFIGTNYYIKVRAGDNKYMHLKVFKSLKKHGDEVTLEDLVLTGYQVDKNKDDELTGF
notes: His-tagged
B10: Clone 46 (designed binder)
chain: MIPGGLSEAKPATPEIQEIVDKVKPQLEEKTGETYGKLEAVQYKTQVVVQHSLWYFQGTNYYIKVRAGDNKYMHLKVFKSLFKHPEENPVEDLVLTGYQVDKNKDDELTGF
notes: His-tagged
B11: Clone 231 (designed binder)
chain: MIPGGLSEAKPATPEIQEIVDKVKPQLEEKTGETYGKLEAVQYKTQVVARWHWFHHFGTNYYIKVRAGDNKYMHLKVFKSLNPINGQETWEDLVLTGYQVDKNKDDELTGF
notes: His-tagged
B12: Clone 23 (designed binder)
chain: MIPGGLSEAKPATPEIQEIVDKVKPQLEEKTGETYGKLEAVQYKTQVVYWEHHHYGFGTNYYIKVRAGDNKYMHLKVFKSLAWPEIDPPVEDLVLTGYQVDKNKDDELTGF
notes: His-tagged
B13: Clone 82 (designed binder)
chain: MIPGGLSEAKPATPEIQEIVDKVKPQLEEKTGETYGKLEAVQYKTQVVFWQLHRYGFGTNYYIKVRAGDNKYMHLKVFKSLEWNRLSPLWEDLVLTGYQVDKNKDDELTGF
notes: His-tagged
B14: Clone 227 (designed binder)
chain: MIPGGLSEAKPATPEIQEIVDKVKPQLEEKTGETYGKLEAVQYKTQVVYVRWHEYGFGTNYYIKVRAGDNKYMHLKVFKSLSNQLIPQPIEDLVLTGYQVDKNKDDELTGF
notes: His-tagged
B15: Clone 244 (designed binder)
chain: MIPGGLSEAKPATPEIQEIVDKVKPQLEEKTGETYGKLEAVQYKTQVVWDSEALPIDGTNYYIKVRAGDNKYMHLKVFKSLRWWPWDAVGEDLVLTGYQVDKNKDDELTGF
notes: His-tagged
B16: Clone 239 (designed binder)
chain: MIPGGLSEAKPATPEIQEIVDKVKPQLEEKTGETYGKLEAVQYKTQVVLTIPPTAFSGTNYYIKVRAGDNKYMHLKVFKSLGWNLHEVALEDLVLTGYQVDKNKDDELTGF
notes: His-tagged
B17: Clone 252 (designed binder)
chain: MIPGGLSEAKPATPEIQEIVDKVKPQLEEKTGETYGKLEAVQYKTQVVAVRPIFKWAGTNYYIKVRAGDNKYMHLKVFKSLFHGPLDNYTEDLVLTGYQVDKNKDDELTGF
notes: His-tagged
B18: Clone 249 (designed binder)
chain: MIPGGLSEAKPATPEIQEIVDKVKPQLEEKTGETYGKLEAVQYKTQVVIYYPIWGFQGTNYYIKVRAGDNKYMHLKVFKSLRWSKDGATAEDLVLTGYQVDKNKDDELTGF
notes: His-tagged
B19: Clone 218 (designed binder)
chain: MIPGGLSEAKPATPEIQEIVDKVKPQLEEKTGETYGKLEAVQYKTQVVWRVYFPDFKGTNYYIKVRAGDNKYMHLKVFKSLDEVDEIPHFEDLVLTGYQVDKNKDDELTGF
notes: His-tagged
B20: Clone 250 (designed binder)
chain: MIPGGLSEAKPATPEIQEIVDKVKPQLEEKTGETYGKLEAVQYKTQVVRDPDVFVFSGTNYYIKVRAGDNKYMHLKVFKSLWYYNDNQSGEDLVLTGYQVDKNKDDELTGF
notes: His-tagged
B21: Clone 228 (designed binder)
chain: MIPGGLSEAKPATPEIQEIVDKVKPQLEEKTGETYGKLEAVQYKTQVVVWTSDDAWQGTNYYIKVRAGDNKYMHLKVFKSLFKFEIYKHTEDLVLTGYQVDKNKDDELTGF
notes: His-tagged
B22: Clone 28 (designed binder)
chain: MIPGGLSEAKPATPEIQEIVDKVKPQLEEKTGETYGKLEAVQYKTQVVAAFSVHPSSGTNYYIKVRAGDNKYMHLKVFKSLEKYHNIWYVEDLVLTGYQVDKNKDDELTGF
notes: His-tagged
B23: Clone 222 (designed binder)
chain: MIPGGLSEAEPATPEIQEIVDKVKPQLEEKTGETYGKLEAVQYKTQVVQRDHFPEFPGTNYYIKVRAGDNKYMHLKVFKSLGHELYALYAEDLVLTGYQVDKNKDDELTGF
notes: His-tagged
B24: Clone 31 (designed binder)
chain: MIPGGLSEAKPATPEIQEIVDKVKPQLEEKTGETYGKLEAVQYKTQVVAQDLSAFQIGTNYYIKVRAGDNKYMHLKVFKSLIFAPLKPWREDLVLTGYQVDKNKDDELTGF
notes: His-tagged
B25: Clone 238 (designed binder)
chain: MIPGGLSEAKPATPEIQEIVDKVKPQLEEKTGETYGKLEAVQYKTQVVRHKGLWQFEGTNYYIKVRAGDNKYMHLKVFKSLSHQPYRATIEDLVLTGYQVDKNKDDELTGF
notes: His-tagged
B26: Clone 241 (designed binder)
chain: MIPGGLSEAKPATPEIQEIVDKVKPQLEEKTGETYGKLEAVQYKTQVVSRLHFPNFQGTNYYIKVRAGDNKYMHLKVFKSLNLEHPTDETEDLVLTGYQVDKNKDDELTGF
notes: His-tagged
B27: Clone 22 (designed binder)
chain: MIPGGLSEAKPATPEIQEIVDKVKPQLEEKTGETYGKLEAVQYKTQVVHRLHFPIYYGTNYYIKVRAGDNKYMHLKVFKSLHFTLPTQHPEDLVLTGYQVDKNKDDELTGF
notes: His-tagged
B28: Clone 220 (designed binder)
chain: MIPGGLSEAKPATPEIQEIVDKVKPQLEEKTGETYGKLEAVQYKTQVVNRWNIREFEGTNYYIKVRAGDNKYMHLKVFKSLINVPVTELLEDLVLTGYQVDKNKDDELTGF
notes: His-tagged
B29: Clone 248 (designed binder)
chain: MIPGGLSEAKPATPEIQEIVDKVKPQLEEKTGETYGKLEAVQYKTQVVLQLPPRPHDGTNYYIKVRAGDNKYMHLKVFKSLNWEPAQHPVEDLVLTGYQVDKNKDDELTGF
notes: His-tagged
B30: Clone 216 (designed binder)
chain: MIPGGLSEAKPATPEIQEIVDKVKPQLEEKTGETYGKLEAVQYKTQVVFTEVKPFVEGTNYYIKVRAGDNKYMHLKVFKSLSWNAPFPAGEDLVLTGYQVDKNKDDELTGF
notes: His-tagged
B31: Clone 27 (designed binder)
chain: MIPGGLSEAKPATPEIQEIVDKVKPQLEEKTGETYGKLEAVQYKTQVVDVKPKWQWTGTNYYIKVRAGDNKYMHLKVFKSLFEGEDRDAVEDLVLTGYQVDKNKDDELTGF
notes: His-tagged
B32: Clone 229 (designed binder)
chain: MIPGGLSEAKPATPEIQEIVDKVKPQLEEKTGETYGKLEAVQYKTQVVHSSSKPYIHGTNYYIKVRAGDNKYMHLKVFKSLNWNRPYNDLEDLVLTGYQVDKNKDDELTGF
notes: His-tagged
B33: Clone 232 (designed binder)
chain: MIPGGLSEAKPATPEIQEIVDKVKPQLEEKTGETYGKLEAVQYKTQVVTKHSATFFHGTNYYIKVRAGDNKYMHLKVFKSLIGNGQYWYREDLVLTGYQVDKNKDDELTGF
notes: His-tagged
B34: Clone 245 (designed binder)
chain: MIPGGLSEAKPATPEIQEIVDKVKPQLEEKTGETYGKLEAVQYKTQVVGYLELWKWSGTNYYIKVRAGDNKYMHLKVFKSLYNLHHPHKDEDLVLTGYQVDKNKDDELTGF
notes: His-tagged
B35: Clone 230 (designed binder)
chain: MIPGGLSEAKPATPEIQEIVDKVKPQLEEKTGETYGKLEAVQYKTQVVHVSNFIIPHGTNYYIKVRAGDNKYMHLKVFKSLNWEGNDLATEDLVLTGYQVDKNKDDELTGF
notes: His-tagged

molecular target: T1, human PD-L1-Fc (R&D Systems) (human, UniProt Q9NZQ7 19-239); experiment: soluble Affimer ELISA
T1 construct: Bought from R&D Systems; Biotinylated in-house for the phage selection; also called huPD-L1-Fc; human PD-L1-Fc antigen; not shown: Fc part of the bought fusion
T1 sequence (Q9NZQ7 19-239 limits assumed): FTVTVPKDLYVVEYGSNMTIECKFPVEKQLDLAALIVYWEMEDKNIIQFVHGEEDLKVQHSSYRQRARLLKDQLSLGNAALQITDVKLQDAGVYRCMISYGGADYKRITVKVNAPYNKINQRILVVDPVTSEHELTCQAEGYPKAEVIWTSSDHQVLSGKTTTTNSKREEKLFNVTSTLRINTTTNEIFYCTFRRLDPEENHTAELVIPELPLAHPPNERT

| binding result | Binder |
| --- | --- |
| binds | B1 |
| binds | B2 |
| binds | B3 |
| binds | B4 |
| binds | B5 |
| binds | B6 |
| binds | B7 |
| binds | B8 |
| binds | B9 |
| binds | B10 |
| binds | B11 |
| binds | B12 |
| binds | B13 |
| binds | B14 |
| binds | B15 |
| binds | B16 |
| binds | B17 |
| binds | B18 |

| binding result | Binder |
| --- | --- |
| binds | B19 |
| binds | B20 |
| binds | B21 |
| binds | B22 |
| binds | B23 |
| binds | B24 |
| binds | B25 |
| binds | B26 |
| binds | B27 |
| binds | B28 |
| binds | B29 |
| binds | B30 |
| binds | B31 |
| binds | B32 |
| binds | B33 |
| binds | B34 |
| binds | B35 |
